Substitutions are numbered along the chain they refer to.
T1: polypeptide GC3pep (human)
T1 construct: also called membrane proximal polypeptide GC3pep
T1 peptide: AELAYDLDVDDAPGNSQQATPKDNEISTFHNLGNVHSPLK

B1: F2.39.2 human-murine chimeric antibody (antibody, human IgG1, kappa, V domains shown)
VH: QVQLQQSGAELVRPGASVKVSCKASGYTFTDYEMHWMKQTPVHGLEWIGANEPETGRSAYDQKFKGKATLTADKSSSTAYMELRSLTSEDSAVYYCTRFYSFAYWGQGTLVTVSA
VL: DVVMTQTPLSLPVSLGDQASISCRSSQGLVHNNGNTYLHWYLQKPGQSPKLLIYKVSNRFSGVPDRFSGSGSGTDFTLKISRVEAEDLGVYFCSQNTHVPPTFGGGTKLEIKR
notes: Chimeric
B2: hAb005LH3L1b (antibody, human IgG1, V domains shown)
VH: EVQLVQSGAEVKKPGASVKVSCKASGYTFTDYEMHWVRQAPGQGLEWIGAIDPETGNTAYIQKFKGRATLTTDKSTSTAYMELRSLRSDDTAVYYCTRFYSYSHWGQGTTVTVSS
VL: DIVMTQTPLSLPVTPGEPASISCRSSQSLVHSNRNTYLHWYLQKPGQSPQLLIYKVSNRFSGVPDRFSGSGSGTDFTLKISRVEAEDVGVYYCSQNTHVPPTFGGGTKVEIK
notes: Humanized F3.54.12
B3: hAb007LH2L1 (antibody, human IgG1, V domains shown)
VH: EVQLVQSGAEVKKPGSSVKVSCKASGYTFTDYEMHWVRQAPGQGLEWMGTIDPETGNTAYNQKFKGRVTITADKSTSTAYMELSSLRSEDTAVYYCTRPYSLTYWGQGTLVTVSS
VL: B2 VL with L29F, R34G, N35D, H39Q, S94F, N96G, T97S, P101Y, G105Q, V109L
notes: Humanized F3.81.19
B4: hAb007LH1L1b (antibody, human IgG1, V domains shown)
VH: B3 VH with T30S
VL: B2 VL with L29F, N35D, H39Q, S94F, N96G, T97S, P101Y, G105Q, V109L
notes: Humanized F3.81.19
B5: hAb006LH2L1b (antibody, human IgG1, V domains shown)
VH: B3 VH with M34I, T50A, E54K, K65M, P99Y, Y100F, L102F, T103A
VL: B2 VL with S28T, L29F, R34A, H39Q, S94F, N96G, T97S, P101Y, G105Q, V109L
notes: Humanized F3.38.7
B6: hAb007LH2L1a (antibody, human IgG1, V domains shown)
VH: B3 VH
VL: DIVMTQTPLSLPVTPGEPASISCRSSQSFVHSDGDTYLQWYLQKPGQSPQLLIYKVSNRFSGVPDRFSGSGSGTDFTLKISRVEAEDVGVYYCFQGSHVPYTFGQGTKLEIK
notes: Humanized F3.81.19
B7: hAb007LH3L1 (antibody, human IgG1, V domains shown)
VH: B3 VH with I70L
VL: B6 VL with D33N
notes: Humanized F3.81.19
B8: hAb007LH1L1e (antibody, human IgG1, V domains shown)
VH: B3 VH with T30S
VL: B6 VL with D33N, G34V
notes: Humanized F3.81.19
B9: hAb007LH3L1a (antibody, human IgG1, V domains shown)
VH: B3 VH with I70L
VL: B6 VL
notes: Humanized F3.81.19
B10: hAb006LH2L1a (antibody, human IgG1, V domains shown)
VH: B3 VH with M34I, T50A, E54K, K65M, P99Y, Y100F, L102F, T103A
VL: B6 VL with S28T, D35N
notes: Humanized F3.38.7
B11: hAb007LH3L1b (antibody, human IgG1, V domains shown)
VH: B3 VH with I70L
VL: B6 VL with D33N, G34R
notes: Humanized F3.81.19
B12: hAb006LH3L1a (antibody, human IgG1, V domains shown)
VH: B3 VH with M34I, T50A, E54K, K65M, I70L, P99Y, Y100F, L102F, T103A
VL: B6 VL with S28T, D35N
notes: Humanized F3.38.7
B13: hAb006LH1L1a (antibody, human IgG1, V domains shown)
VH: B3 VH with T30S, M34I, T50A, E54K, K65M, P99Y, Y100F, L102F, T103A
VL: B6 VL with S28T, D35N
notes: Humanized F3.38.7
B14: hAb006LH1L1b (antibody, human IgG1, V domains shown)
VH: B3 VH with T30S, M34I, T50A, E54K, K65M, P99Y, Y100F, L102F, T103A
VL: B6 VL with S28T, D33N, G34A, D35N
notes: Humanized F3.38.7
B15: hAb006LH3L1e (antibody, human IgG1, V domains shown)
VH: B3 VH with M34I, T50A, E54K, K65M, I70L, P99Y, Y100F, L102F, T103A
VL: B6 VL with S28T, D33N, G34V, D35N
notes: Humanized F3.38.7
B16: hAb007LH1L1d (antibody, human IgG1, V domains shown)
VH: B3 VH with T30S
VL: B6 VL with D33N, G34S
notes: Humanized F3.81.19
B17: hAb007LH1L1 (antibody, human IgG1, V domains shown)
VH: B3 VH with T30S
VL: B6 VL with D33N
notes: Humanized F3.81.19
B18: hAb006LH3L1d (antibody, human IgG1, V domains shown)
VH: B3 VH with M34I, T50A, E54K, K65M, I70L, P99Y, Y100F, L102F, T103A
VL: B6 VL with S28T, D33N, G34S, D35N
notes: Humanized F3.38.7
B19: hAb007LH1L1c (antibody, human IgG1, V domains shown)
VH: B3 VH with T30S
VL: B6 VL with D33N, G34A
notes: Humanized F3.81.19
B20: hAb007LH1L1a (antibody, human IgG1, V domains shown)
VH: B3 VH with T30S
VL: B6 VL
notes: Humanized F3.81.19
B21: hAb007LH2L1b (antibody, human IgG1, V domains shown)
VH: B3 VH
VL: B6 VL with D33N, G34R
notes: Humanized F3.81.19
B22: hAb006LH2L1 (antibody, human IgG1, V domains shown)
VH: B3 VH with M34I, T50A, E54K, K65M, P99Y, Y100F, L102F, T103A
VL: B6 VL with S28T, D33N, D35N
notes: Humanized F3.38.7
B23: hAb006LH1L1 (antibody, human IgG1, V domains shown)
VH: B3 VH with T30S, M34I, T50A, E54K, K65M, P99Y, Y100F, L102F, T103A
VL: B6 VL with S28T, D33N, D35N
notes: Humanized F3.38.7
B24: F2.23.8 human-murine chimeric antibody (antibody, human IgG1, kappa, V domains shown)
VH: B1 VH with V20L, M37V, I48F, N51I, E52D, R57G, S58T, D61N, K65R, G66A
VL: B1 VL with G28S, N32S, H39Q, S81T, N96S, P101Y, G105S
notes: Chimeric
B25: F2.154.1 human-murine chimeric antibody (antibody, human IgG1, kappa, V domains shown)
VH: QVQLQQSGAELVRPGASVKLSCKASGYRFTDYEMHWVKQTPVHGLEWIGTIDPETGNTAYTQKFMDKATLTADKSSSTAYMELRSLTSEDSAVYYCTRGYSFTYWGQGTLATVSA
VL: DVLMTQTPLSLPVSLGDQASISCRSSQNIVHSNGNTYLQWYLQKPGQSPKLLIFKVSNRFSGVPDRFSGSGSGTDFTLKISRVEAEDLGVYYCFQGSHVPFTFGTGTKLEIKR
notes: Chimeric
B26: F3.81.19 human-murine chimeric antibody (antibody, human IgG1, kappa, V domains shown)
VH: B25 VH with R28T, T61N, M65K, D66G, G99P, F102L, A111V
VL: B25 VL with M4L, N28S, I29F, N35D, F54Y, F101Y, T105S
notes: Chimeric
B27: F3.38.7 human-murine chimeric antibody (antibody, human IgG1, kappa, V domains shown)
VH: QVQLQQSGAELVRPGASVKLSCKASGYTFTDYEIHWVKQTPVLGLEWIGAIDPKTGNTAYNQKFMGKATLTADKSSTTAYMDLRSLTSEDSAVYYCTRYFSFAYWGQGTLVTVSA
VL: B25 VL with N28T, I29F, F54Y, F101Y, T105S
notes: Chimeric
B28: F4.21.16 (antibody, human IgG1, kappa, V domains shown)
VH: DVQLQESGPGLVKPSQSLSLTCSVTGYSITSGYYWNWIRQFPGNKLEWMGYISYDVTVNYNPSLKNRISITRDTSKNQFFLKLNSVTTEDTATYYCATITSVASMDHWGQGTSVTVSS
VL: B25 VL with V2I, S32R, Q39E, I53L, F54Y, V90I, V99F, T105S
notes: human-murine chimeric antibody
B29: F4.18.4 (antibody, human IgG1, kappa, V domains shown)
VH: QVQLHQSGAEMAKPGASVNLSCKTSGFTFTDYGISWVKQRTRQGLEWIGDIYPRHINIYYNEKFKDKATLTADRSSSTAYMELRSMTSEDSAVYFCARRGTTGRGALDYWGQGTSLTVSS
VL: DILLTQSPAILSVSPGERVSFSCRASQSIGTSIHWYQQRTNGSPRLLIKYAFESISGIPSRFGGSGSRTDFTLTINSVESEDIADYYCQQTYNWPYTFGGGTKLEIKR
notes: as for B28
B30: F4.13.7 (antibody, human IgG1, kappa, V domains shown)
VH: QVQLQQPGAELVKPGASVKLSCKASGYTFTNNWVHWVKQRPGQGLEWTGMIHPDSGSTIYNEKFQSKATLTVDKSSSTAYMQLSSLTSEDSAVYYCARGYYDSSSYYAMDYWGQGTSVTVSS
VL: NIQMTQTTSSLSASLGDRVTISCSASQGIFNYLNWYQQKPDGTVKLLIYYTSSLHSGVPSRFSGSGSGTDYSLTISNLEPEDIATYYCQQYSKLPWTFGGGTKLEIKR
notes: as for B28
B31: F3.81.19 (antibody, human IgG1, kappa, V domains shown)
VH: B25 VH with R28T, T61N, M65K, D66G, G99P, F102L, A111V
VL: B25 VL with M4L, N28S, I29F, N35D, F54Y, F101Y, T105S
notes: as for B28

biological target: T2, murine GPC3-His protein (Sino Biological, Cat. No. 50989-M08B) (murine, UniProt Q8CFZ4 25-558); assay: ELISA, coated antigen
T2 construct: Bought protein; also called murine GPC3 protein; mouse GPC3-his protein; not shown: His tag
T2 sequence (Q8CFZ4 25-558 limits assumed): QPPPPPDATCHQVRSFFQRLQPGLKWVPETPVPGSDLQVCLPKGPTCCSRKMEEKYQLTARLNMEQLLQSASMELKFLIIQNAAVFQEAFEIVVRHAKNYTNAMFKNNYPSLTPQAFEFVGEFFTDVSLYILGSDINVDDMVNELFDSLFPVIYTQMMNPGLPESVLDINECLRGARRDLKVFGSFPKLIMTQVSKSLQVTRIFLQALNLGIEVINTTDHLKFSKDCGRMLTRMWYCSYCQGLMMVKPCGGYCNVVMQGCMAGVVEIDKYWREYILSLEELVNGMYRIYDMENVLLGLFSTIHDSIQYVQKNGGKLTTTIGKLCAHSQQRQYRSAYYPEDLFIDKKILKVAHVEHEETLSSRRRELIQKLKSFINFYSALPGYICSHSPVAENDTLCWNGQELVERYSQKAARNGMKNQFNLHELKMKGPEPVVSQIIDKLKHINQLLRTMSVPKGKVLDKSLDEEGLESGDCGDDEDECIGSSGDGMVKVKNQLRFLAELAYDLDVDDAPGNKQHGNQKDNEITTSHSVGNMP

Binder | binding result
B1 | no binding (tested: 100 nM)
B2 | no binding
B3 | no binding
B4 | no binding
B5 | no binding
B6 | no binding
B7 | no binding
B8 | no binding
B9 | no binding
B10 | no binding
B11 | no binding
B12 | no binding
B13 | no binding
B14 | no binding
B15 | no binding
B16 | no binding
B17 | no binding
B18 | no binding
B19 | no binding
B20 | no binding
B21 | no binding
B22 | no binding
B23 | no binding
B24 | no binding (tested: 100 nM)
B25 | no binding (tested: 100 nM)
B26 | no binding (tested: 100 nM)
B27 | no binding (tested: 100 nM)

Biological target: T1, polypeptide GC3pep
Assay: ELISA, GC3pep coated, antibody 1 nM;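 also: bound antibody detected with an HRP-conjugated secondary antibody and TMB substrate, reaction stopped with HCl, after 2 h binding at 37 °C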

Binder | OD450 nm [OD450 nm]
B28 | 0.03
B29 | 0.03
B30 | 0.03
B31 | 1.21

Biological target: T1, polypeptide GC3pep
Assay: ELISA, GC3pep coated, antibody 10 nM;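 also: antibody bound to the coated peptide for 2 h at 37 °C, detected through an HRP-conjugated secondary antibody with TMB colour development stopped by acid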

Binder | OD450 nm [OD450 nm]
B28 | 0.04
B29 | 0.03
B30 | 0.04
B31 | 2.88

Biological target: T1, polypeptide GC3pep
Assay: ELISA, GC3pep coated, antibody 0.1 nM;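 also: antibody allowed to bind the coated plate 2 h at 37 °C, then detected via HRP-conjugated secondary antibody and TMB development for 10 min, stopped with HCl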

Binder | OD450 nm [OD450 nm]
B28 | 0.03
B29 | 0.03
B30 | 0.03
B31 | 0.19

Biological target: T1, polypeptide GC3pep
Assay: ELISA, GC3pep coated, antibody 100 nM;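 also: detection with an HRP-conjugated secondary antibody and TMB substrate, color reaction stopped with HCl before absorbance reading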

Binder | OD450 nm [OD450 nm]
B28 | 0.08
B29 | 0.06
B30 | 0.06
B31 | 2.94

Biological target: T1, polypeptide GC3pep
Assay: ELISA, GC3pep coated, antibody 0.01 nM;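 also: bound antibody detected with an HRP-conjugated secondary antibody and TMB substrate, color reaction stopped with HCl before reading absorbance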

Binder | OD450 nm [OD450 nm]
B28 | 0.04
B29 | 0.04
B30 | 0.04
B31 | 0.05

Biological target: T1, polypeptide GC3pep
Assay: ELISA, GC3pep coated, antibody 0.001 nM

Binder | OD450 nm [OD450 nm]
B28 | 0.04
B29 | 0.04
B30 | 0.08
B31 | 0.05

Biological target: T1, polypeptide GC3pep
Assay: ELISA, GC3pep coated, antibody 0.0001 nM

Binder | OD450 nm [OD450 nm]
B28 | 0.04
B29 | 0.04
B30 | 0.05
B31 | 0.05
